Tested on: Y. lipolytica JMY2900
Assay: qPCR of putative FDH gene transcription upon induction with sodium formate
Assay type: cell-based, Yarrowia lipolytica
Conditions: YNB with 0.5% sodium formate, 6 h, 28° C., vs absence of formate; qPCR normalised to actin
Experimental: FIG. 3: Transcription levels of the FDH genes of Yarrowia lipolytica W29 measured by qPCR, normalised to actin (ACT1) expression. Yarrowia lipolytica was grown in YNB supplemented with 1% glucose and 0.5% yeast extract at 15 h at 28° C., before being washed and transferred into YNB with 0.5% of sodium formate for induction and grown for 6 h.
The inducibility of the putative FDH genes with formate was then tested by qPCR. YALI0E14256g1_1 and the nine putative FDH with the highest % identity to YALI0E14256g1_1 were selected for testing. Y. lipolytica JMY2900 was cultured in YNB media supplemented with 1% glucose and 0.5% yeast extract for 15 h at 28° C. Cells were washed with distilled water and cultured in fresh liquid YNB media supplemented with 0.5% sodium formate at 28° C. with agitation at 160 rpm, before being harvested at 6 h post-inoculated. Cells were frozen in liquid nitrogen and stored at −80° C. RNA was subsequently extracted using the RNeasy Mini Kit (Qiagen), and 2 μg was treated with DNAse (Ambion; Life Science Technologies, Saint-Aubain, France). cDNA was synthesised using the Maxima First Strand cDNA synthesis kit (Thermo Fischer Scientific, Villebon sur Yvette, France). qPCR was then performed using the SYBRgreen mastermix (Thermo Fischer Scientific) with gene-specific primers designed using Primer3 software. Relative expression levels were calculated using ΔCT and ΔΔCT methods. Expression levels were normalised to actin.

Molecule	Fold increase on induction (fold change expression of putative FDH genes upon induction with sodium formate) [fold]
Yali0C14344: putative Y. lipolytica FDH gene; promoter region SEQ ID NO: 7 (1 Kb) and 23 (1.5 Kb) (nucleic acid, listed as Yarrowia lipolytica, YALI0C14344g) DNA: ATGAAGGTCCTTCTTGTTCTATACGATGCCGGCTCCCACGCCAAGGATGAGCCAAAGCTACTTGGATGCACCGAGAACGAGCTCGGAATCAGAGACTGGCTCGAGTCACAGGGCCACACTCTTGTCACCACCTCTTCCAAGGACGGTGCCCACTCTGTGCTTGACAAGGAGATTGTCGATGCCGATGTAGTCATCACCACCCCTTTCCACCCCGGCTACATCAACAAGGAGCGAATTGACAAGGCCAAAAAGCTCAAGATCTGCATCACCGCTGGTGTTGGCTCCGACCACGTCGATCTCGACGCAGCCAACGCCCGAGATATCTCTGTTCTTGAGGTTACTGGTTCTAATGTCCAGTCTGTCGCAGAGCACGTCGTTATGACCATGCTGGTGCTGGTCCGAAACTTTGTGCCCGCCCACGAGCAGATCATCGAGGGCGGCTGGAATGTGGCTGCTGTCGCCAAGGACTCGTACGATCTCGAGGGAAAGGTCATTGGCACCGTTGGAGGCGGTCGAATCGGCCAGCGAGTGCTCAAGCGATGCAAGCCCTTTGACCCCATGGAGATGCTCTACTACGACTACCAGGCTATGCCAGCTGATGTGGAGAAGGAGATTGGATGCCGACGAGTCGAGTCTCTGGAGGAGAAGCTCTCTCTCTGTGACGTTGTCACCATCAACTGTCCCCTTCACGCCTCCACCAAGGGTCTCTTCAACAAGGAGCTCATTTCCCACATGAAGGACGGCGCTTGGCTCGTCAACACTGCTCGAGGAGCCATCTGCGTCACCGAGGACATTGTCGACGCTCTCGAGTTGGGCAAGATCCGAGGATATGGCGGTGACGTCTGGTTCCCCCAGCCTGCCTCCAAGGACCACCCCTGGAGAACCATGCGAAATAAGTACGGCGGTGGAAACGCCATGACTCCCCACATCTCCGGCACTTCCATCGACGCCCAGGGCCGATACGCTGAGGGTACCAAGAAGATCCTCGAGGTCTTTTTCTCGGGAAAGCAGAATTACAGACCCCAGGATATCATCTGTATCAACGGCCATTATGGTACAAAGGCCTACGGTGACGACAAGGAGCACAAGGGGCACCAGCAGAAGTGA	4.9
Yali0E14256: Y. lipolytica FDH gene; promoter region SEQ ID NO: 8 (1 Kb) and 24 (1.5 Kb) (nucleic acid, listed as Yarrowia lipolytica, YALI0E14256g) DNA: ATGAAGATCCTTCTTGTTCTCTACGACGCCGGTTCCCACGCCAAGGATGAGCCTCGACTTCTCGGATGTACCGAGAACGAGCTTGGTCTCCGTGACTGGATCGAGTCCCAGGGACACACCTTGGTGACCACCTCCGACAAGGACGGTGAGAACTCAACCGTCGACAAGGAGATTGTGGATGCTGAGATTGTTATCACCACCCCCTTCCACCCCGCTTACATCACCAAGGAGCGAATTGACAAGGCCAAGAAGCTCAAGATCTGTATCACTGCCGGTGTTGGTTCCGACCATGTCGACCTTGATGCCGCCAACGCCCGAGACATTGCCGTCCTCGAGGTTACCGGATCTAACGTCCAGTCCGTCGCTGAGCACGTTGTCATGACCATGCTGGTTCTGGTCCGAAACTTCGTCCCCGCCCACGAGCAGATCATCGAGGGTGGCTGGAATGTCGCTGCTGTCGCCAAGGACTCTTACGACATTGAGGGTAAGGTCATTGGTACTGTCGGCGGTGGCCGAATTGGTCAGCGAGTCCTGAAGCGACTTGCACCCTTCAACCCCATGGAGCTCCTCTACTACGACTACCAGCCCATGCCCAAGGACGTGGAGAAGGAGATTGGCTGCCGACACGTCCCTGATCTTAAGGAGATGCTCTCTGTCTGTGACATTGTTACCATCAACTGTCCTCTCCACGACTCTACCAAGGGTATGTTCAACAAGGAACTCATCTCCCACATGAAGGATGGTGCTTGGCTCGTCAACACCGCCCGAGGTGCCATCTGTGTCACTGACGACATTGTTGAGGCCCTCAAGTCCGGTAAGATCCGAGGCTACGGTGGTGATGTCTGGAACCCCCAGCCTGCCCCCAAGGACCACCCCTGGAGATACATGCGAAACAAGTGGGGCGGTGGAAACGCCATGACCCCCCATATCTCCGGTACCTCCATCGATGCCCAGGGCCGATACTCCGAGGGTACCAAGAACATTCTCGAGGTCTACTTCTCCGGAAAGCAGAACTACCGACCTCAGGATGTCATCTGTATCAACGGCCACTACGGCACTAAGGCTTACGGTGACGACAAGGAGCACAAGGCCCACGTTTCCAAATAAGCACTTTAGCTGTTTAACTTATAAGCAATTGACTACTAGAATTTGC	23.9
Yali0F28765: putative Y. lipolytica FDH gene; its formate-inducible promoter region is SEQ ID NO: 11 (1 Kb) and 27 (1.5 Kb) (nucleic acid, listed as Yarrowia lipolytica, YALI0F28765g) DNA: ATGAAGGTCCTTCTCATTCTCTACGACGCCGGCTCCCACGCTGTTGATGAGCCCAAACTACTCGGATGCACCGAGAACGAGCTCGGTATCCGATCATGGCTCGAGTCCCAGGGCCATACTCTGGTAACCACCTCTTCCAAGGATGGCGATGACTCTGTCCTCGACAAGGAAATTGTCGACGCCGATGTCGTCATCACCACTCCCTTCCATCCCGGTTACATTACCCGAGAGCGAATTGCCAAGGCCAAGAACCTCAAAATATGTGTTACTGCAGGTGTTGGTTCCGACCATGTCGACCTTGATGCCGCCAACGAGCGAGACATTGCCGTTCTCGAGGTCACTGGTTCCAACGTCCAATCCGTCGCTGAGCACGTCGTCATGACCATGCTCGTCCTCGTCCGAAACTTTGTCCCCGCTCACGAGCAGGTCATGGCTGGTGGTTGGGATGTTGCTGCTGTCGCCAAGGACTCTTATGACATCGAGGGTAAGGTCATTGGTACCGTTGGTGGTGGCCGAATTGGTCAGCGAGTCCTCAAGCGAGTGGCTCCCTTCAACCCTAAGGAGATGCTCTACTACGACTACCAAGGACTTTCTGCTGAGACCGAGCAGGAGCTCAACTGTCGACGAGTCGAGAAGCTTGAAGATATGCTTGCCCAATGTGACATTGTCACCATTAACTGTCCTCTCCACGAGTCTACCAAGGGCCTCTTCAACAAGGAGATGCTCTCTCACATGAAGAAGGGTGCTTGGCTTGTCAACACCGCTCGAGGAGCTATCTGTGTCAAGGAGGATGTCGCCGAGGCTCTTGCCAACGGCCAGCTTCGAGGCTACGGTGGTGATGTGTGGTTCCCTCAGCCAGCCCCTGCCGACCACCCTTGGAGATCGATGCGAAACAAGTACGGCGCCGGTAACGCTATGACCCCACACATATCTGGTACTTCCATTGACGCCCAGGCCCGATACGCCGAGGGCACCAAGAACATTCTCGAGGTCTTCTTCTCCGGAAAGCAGGACTACCGACCCCAGGATATCATCTGTATCAACGGTCACTACGGTACCAAGGCTTACGGCGACGACAAGGAGCACGCCAAGAAATAGATAATATTCATTAACATACAAATACAGTCTACAGTCCTATATCGATTCGGTCGCTTCGAG	8.1
Yali0B19976: putative Y. lipolytica FDH gene; promoter region SEQ ID NO: 9 (1 Kb) and 25 (1.5 Kb) (nucleic acid, listed as Yarrowia lipolytica, YALI0B19976g) DNA: ATGAAGGTCCTTCTTGTTCTCTACGACGCCGGCTCCCACGCCAAGGATGAGCCCAAGCTACTTGGATGCACTGAAAACGAGCTCGGTATCCGAGACTGGCTCGAGTCCCAGGGCCATACCCTGGTAACTACCTCTTCTAAGGATGGCGCCGACTCCGTTCTCGACAAGGAGATTGTTGATGCCGATGTTGTCATCACTACCCCCTTCCATCCCGGTTACATCAACAAGGAGAGAATTGACAAGGCCAAGAAGCTCAAGATCTGTATCACTGCCGGTGTTGGTTCTGACCATGTCGATCTAGATGCCGCCAACGCCCGAGACATTGCTGTCCTTGAAGTCACTGGCTCCAACGTTCAGTCGGTCGCTGAGCATGTTGTCATGACCATGCTTGTTCTGGTCAGAAACTTCGTCCCTGCTCATGAGCAGATCATTTCTGGTGGCTGGGACGTTGCCGCTGTCGCCAAGGACTCTTACGACCTAGAGGGTAAGGTCATTGGTACAGTTGGAGGTGGGCGAATCGGTCAGCGAGTCCTCAAGCGATGCAAGCCCTTCGACCCCATGGAGATGCTCTACTACGACTACCAGCCCATGCCCGCTGATGTCGAGAAGGAGATTGGCTGTCGACGAGTGGAGTCTCTCGAGGAGATGCTCTCTCTCTGTGACGTTGTCACCATCAACTGTCCTCTGCACGCCTCCACCAAGGGCCTCTTCAACAAGAAGCTCATCTCCCACATGAAGGATGGCGCCTGGCTCGTCAACACCGCTCGAGGAGCTATTTGTGTCACTGAGGACATTGTTGAGGCTCTCGAGTCCGGAAAGATTCGAGGCTACGGTGGTGATGTCTGGTTCCCTCAGCCCGCCCCAAAGGACCACCCCTGGAGAACAATGCGAAACAAGTACGGTGGAGGAAACGCCATGACCCCTCATATCTCTGGTACTTCTATTGATGCCCAAGGCCGATACGCTGAGGGCACCAAGAAAATCCTTGAGGTCTTCTTCTCAGGAAAGCAAGACTACCGACCCCAGGATATCATCTGTATCAACGGTCACTACGGTACCAAGGCTTACGGTGACGACAAGGAGCACAAGGAGCACAAGGAGCACGAGGTCAAATAAGCTATCAGCTCTATAGTACTGTACAGTAGGTACAATAGGATCTTGATATTACAGT	11.4

From US20230332166A1, “FORMATE-INDUCIBLE PROMOTERS AND METHODS OF USE THEREOF” (Imperial College Innovations Ltd, priority 2020, published 2023)
